# Patent publication US7851182 (CONARIS RESEARCH INSTITUTE, dated 2010)
# Molecular target: T1, IL-6/soluble IL-6 receptor complex (human, UniProt P05231 30-212; P08887 20-358, limits assumed)
# T1 construct: also called IL-6/sIL-6R complex; IL-6/sIL-6R
# Assay: ELISA, coated Fc fusion, IL-6 + sIL-6R titrated, anti-sIL-6R detection
# Excerpt: Comparison of the IL-6/sIL-6R Complex Binding Properties of sgp130Fc and sgp130(D1-D3)S_n-Fc (A) Material The 96-well Microlon microtiter plates were purchased from Greiner Bio-One (Frickenhausen, Germany). Recombinant human IL-6 and soluble IL-6 receptor (sIL-6R) were obtained from BioSource (Solingen, Germany) and R&D Systems (Wiesbaden, Germany), respectively. The primary anti-sIL-6R antibody (clone M91, mouse IgG1) was from Beckman Coulter (Krefeld, Germany). The secondary anti-mouse IgG HRP-conjugated antibody from GE Healthcare (Freiburg, Germany) was the same as in the Western blotting experiments (see Example 1, A and C). Ready-to-use Tetramethylbenzidin (TMB) HRP substrate was purchased from Sigma-Aldrich (Taufkirchen, Germany).
# For quality control and comparison between different lots of sgp130Fc variants, a standard ELISA was designed. All steps except for coating were carried out at room temperature, all washing steps were performed three times with a volume of 250 µl, and all conditions were measured in triplicate. A 96 well microtiter plate was coated with 100 ng/Well of original sgp130Fc as an internal standard and an equimolar quantity of sgp130(D1-D3)S_n-Fc in 100 µl PBS at 4° C. overnight. Thus, sgp130Fc and its variants served as capture reagent, while the bound sIL-6R was detected (see below). After washing with 0.05% Tween-20/PBS, wells were blocked with 200 µl/Well 3% BSA/PBS for 2 h. Subsequently, the blocking solution was removed, and wells were incubated for 1 h with a 1:2 dilution series (100 µl/Well) of recombinant human IL-6 (3.2 µg/ml to 50 ng/ml) and sIL-6R (1.6 µg/ml to 25 ng/ml) in 3% BSA/PBS. After washing with 0.05% Tween-20/PBS, wells were incubated with the primary anti-sIL-6R antibody diluted 1:2,000 in 3% BSA/PBS (100 µl/Well) for 1 h. Another series of three washing steps with 0.05% Tween-20/PBS was followed by a 1-h incubation with the secondary anti-mouse IgG HRP-conjugated antibody at 1:5,000 (100 µl/Well). After washing with 0.05% Tween-20/PBS and subsequently with dH_2O, plates were incubated with 100 µl/Well TMB substrate for about 5 min (depending on the intensity of the developing blue colour). The substrate reaction was stopped by adding 100 µl/Well 0.5 M sulfuric acid to the wells. Finally, the $A450$ was measured in a microplate reader.
row,binding result,Binder
1,binds,"sgp130(D1-D3)S2-Fc (Fc fusion, D4-D6 replaced by two GGGGS repeats; No tags; not shown: IgG-Fc part; its beginning is printed as 'SCD'; detected with an anti-human IgG (Fc) antibody) ELLDPCGYISPESPVVQLHSNFTAVCVLKEKCMDYFHVNANYIVWKTNHFTIPKEQYTIINRTASSVTFTDIASLNIQLTCNILTFGQLEQNVYGITIISGLPPEKPKNLSCIVNEGKKMRCEWDGGRETHLETNFTLKSEWATHKFADCKAKRDTPTSCTVDYSTVYFVNIEVWVEAENALGKVTSDHINFDPVYKVKPNPPHNLSVINSEELSSILKLTWTNPSIKSVIILKYNIQYRTKDASTWSQIPPEDTASTRSSFTVQDLKPFTEYVFRIRCMKEDGKGYWSDWSEEASGITYEDGGGGSGGGGS"
2,binds,"sgp130(D1-D3)S3-Fc (Fc fusion, D4-D6 replaced by three GGGGS repeats; No tags; not shown: IgG-Fc part; its beginning is printed as 'SCD'; detected with an anti-human IgG (Fc) antibody) ELLDPCGYISPESPVVQLHSNFTAVCVLKEKCMDYFHVNANYIVWKTNHFTIPKEQYTIINRTASSVTFTDIASLNIQLTCNILTFGQLEQNVYGITIISGLPPEKPKNLSCIVNEGKKMRCEWDGGRETHLETNFTLKSEWATHKFADCKAKRDTPTSCTVDYSTVYFVNIEVWVEAENALGKVTSDHINFDPVYKVKPNPPHNLSVINSEELSSILKLTWTNPSIKSVIILKYNIQYRTKDASTWSQIPPEDTASTRSSFTVQDLKPFTEYVFRIRCMKEDGKGYWSDWSEEASGITYEDGGGGSGGGGSGGGGS"

# More lines, now with the values behind:
row,Binder,binding result
1,"sgp130(D1-D3)S0-Fc (Fc fusion, No spacer between D3 and Fc; V5 and 6xHis tags are not present; also called sgp130(D1-D3)Fc; sgp130(D1-3)Fc; not shown: IgG-Fc part; its beginning is printed as 'SCD'; detected with an anti-human IgG (Fc) antibody) ELLDPCGYISPESPVVQLHSNFTAVCVLKEKCMDYFHVNANYIVWKTNHFTIPKEQYTIINRTASSVTFTDIASLNIQLTCNILTFGQLEQNVYGITIISGLPPEKPKNLSCIVNEGKKMRCEWDGGRETHLETNFTLKSEWATHKFADCKAKRDTPTSCTVDYSTVYFVNIEVWVEAENALGKVTSDHINFDPVYKVKPNPPHNLSVINSEELSSILKLTWTNPSIKSVIILKYNIQYRTKDASTWSQIPPEDTASTRSSFTVQDLKPFTEYVFRIRCMKEDGKGYWSDWSEEASGITYED",binds
2,"sgp130(D1-D3)S1-Fc (Fc fusion, D4-D6 replaced by one GGGGS repeat; No tags; not shown: IgG-Fc part; its beginning is printed as 'SCD'; detected with an anti-human IgG (Fc) antibody) ELLDPCGYISPESPVVQLHSNFTAVCVLKEKCMDYFHVNANYIVWKTNHFTIPKEQYTIINRTASSVTFTDIASLNIQLTCNILTFGQLEQNVYGITIISGLPPEKPKNLSCIVNEGKKMRCEWDGGRETHLETNFTLKSEWATHKFADCKAKRDTPTSCTVDYSTVYFVNIEVWVEAENALGKVTSDHINFDPVYKVKPNPPHNLSVINSEELSSILKLTWTNPSIKSVIILKYNIQYRTKDASTWSQIPPEDTASTRSSFTVQDLKPFTEYVFRIRCMKEDGKGYWSDWSEEASGITYEDGGGGS",binds
